From patent US20200010567A1 (NEURIMMUNE, published 2020)

Legend:
(PR)15: H-C(PR)15-OH [1] = molecular target: T1, (PR)15: H-C(PR)15-OH; assay: indirect ELISA, coated uncoupled peptide
T1 construct: synthetic, not coupled to BSA; also called poly-PR DPR protein peptide
T1 peptide: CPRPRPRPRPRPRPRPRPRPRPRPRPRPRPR

(PR)15: H-C(PR)15-OH [2] = molecular target: T1, (PR)15: H-C(PR)15-OH; assay: indirect ELISA, uncoupled peptide coated, antibody titrated [also D00013 FIG. 3F]
Method: (§1) In brief, dipeptide repeat proteins were synthesized and purified by Schafer-N(Copenhagen, Denmark): (GA)₁₅: H-CHHHHHH(GA)₁₅-OH; (GP)₁₅: H-C(GP)₁₅-OH; (GR)₁₅: H-C(GR)₁₅-OH; (PA)₁₅: H-C(PA)₁₅-OH; (PR)₁₅: H—C(PR)₁₅-OH. DPR protein peptides were then conjugated via a bifunctional linker (SMCC) to bovine serum albumin (BSA). 96-well microplates (Corning Incorporated, Corning, USA) were coated with BSA-coupled or -uncoupled dipeptide repeat protein peptides at a concentration of either 5 μg/ml or 20 μg/ml in coating buffer (15 mM Na₂CO₃, 35 mM NaHCO₃, pH 9.42). Non-specific binding sites were blocked for 1 h at room temperature with PBS/0.1% Tween®-20 containing 2% BSA (Sigma-Aldrich, Buchs, Switzerland). Primary antibodies were diluted to the indicated concentrations and incubated 1 h at room temperature, followed by incubation with a donkey anti-human IgG Fcγ-specific antibody conjugated with HRP (Jackson ImmunoResearch Laboratories, Inc., West Grove, USA). Binding was determined by measurement of HRP activity in a standard colorimetric assay. EC₅₀ values were estimated by non-linear regression using GraphPad Prism software (San Diego, USA).

[3] = molecular target: T2, (GA)15: H-CHHHHHH(GA)15-OH; assay: indirect ELISA, uncoupled peptide coated, antibody titrated [also D00013 FIG. 3E]
T2 construct: synthetic, not coupled to BSA; also called poly-GA DPR protein peptide
T2 peptide: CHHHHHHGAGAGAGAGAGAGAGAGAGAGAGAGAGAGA
Method: as §1

GP4: H-(GP)4HHHHHH-NH2 = molecular target: T3, GP4: H-(GP)4HHHHHH-NH2; assay: indirect ELISA, His-tagged peptide coated at 50 ug/ml, antibody titrated [also D00026 FIG. 7J]
T3 peptide: H-GPGPGPGPHHHHHH-NH2
Description: (§2) In brief, dipeptide repeat proteins were synthesized and purified by Schafer-N (Copenhagen, Denmark): GA₂₀: H-(GA)₂₀HHHHHH-NH₂; GA₁₀: H-(GA)₁₀HHHHHH-NH₂; GA₆: H-(GA)₆HHHHHH-NH₂; GA₅: H-(GA)₅HHHHHH-NH₂; GA₄: H-(GA)₄HHHHHH-NH₂; GA₃: H-(GA)₃HHHHHH-NH₂; GA₂: H-(GA)₂HHHHHH-NH₂; GP₂₀: H-(GP)₂₀HHHHHH-NH₂; GP₁₀: H-(GP)₁₀HHHHHH-NH₂; GP₆: H-(GP)₆HHHHHH-NH₂; GP₅: H-(GP)₅HHHHHH-NH₂; GP₄: H-(GP)₄HHHHHH-NH₂; GP₃: H-(GP)₃HHHHHH-NH₂; GP₂: H-(GP)₂HHHHHH-NH₂. GR₂₀: H-(GR)₂₀HHHHHH-NH₂; GR₁₀: H-(GR)₁₀HHHHHH-NH₂; GR₆: H-(GR)₆HHHHHH-NH₂; GR₅: H-(GR)₅HHHHHH-NH₂; GR₄: H-(GR)₄HHHHHH-NH₂; GR₃: H-(GR)₃HHHHHH-NH₂; GR₂: H-(GR)₂HHHHHH-NH₂; PA₂₀: H-(PA)₂₀HHHHHH-NH₂; PA₁₀: H-(PA)₁₀HHHHHH-NH₂; PA₆: H-(PA)₆HHHHHH-NH₂; PA₅: H-(PA)₅HHHHHH-NH₂; PA₄: H-(PA)₄HHHHHH-NH₂; PA₃: H-(PA)₃HHHHHH-NH₂; PA₂: H-(PA)₂HHHHHH-NH₂; PR₂₀: H-(PR)₂₀HHHHHH-NH₂; PR₁₀: H-(PR)₁₀HHHHHH-NH₂; PR₆: H-(PR)₆HHHHHH-NH₂; PR₅: H-(PR)₅HHHHHH-NH₂; PR₄: H-(PR)₄HHHHHH-NH₂; PR₃: H-(PR)₃HHHHHH-NH₂; PR₂: H-(PR)₂HHHHHH-NH₂. 96-well microplates (Corning Incorporated, Corning, USA) were coated with dipeptide repeat protein peptides at a concentration of 50 μg/ml in coating buffer (15 mM Na₂CO₃, 35 mM NaHCO₃, pH 9.42). Non-specific binding sites were blocked for 1 h at room temperature with PBS/0.1% Tween®-20 containing 2% BSA (Sigma-Aldrich, Buchs, Switzerland). Primary antibodies were diluted to the indicated concentrations and incubated 1 h at room temperature, followed by incubation with a donkey anti-human IgG Fcγ-specific antibody conjugated with HRP (Jackson ImmunoResearch Laboratories, Inc., West Grove, USA). Binding was determined by measurement of HRP activity in a standard colorimetric assay. EC₅₀ values were estimated by non-linear regression using GraphPad Prism software (San Diego, USA).

GP3: H-(GP)3HHHHHH-NH2 = molecular target: T4, GP3: H-(GP)3HHHHHH-NH2; assay: as above
T4 peptide: H-GPGPGPHHHHHH-NH2
Description: as §2

(GR)15: H-C(GR)15-OH = molecular target: T5, (GR)15: H-C(GR)15-OH; assay: indirect ELISA, coated uncoupled peptide
T5 construct: synthetic, not coupled to BSA; also called poly-GR DPR protein peptide
T5 peptide: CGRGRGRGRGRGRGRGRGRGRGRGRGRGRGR

B1: NI-308.24E11 (antibody, V domains shown)
VH: QVQLQESGPGLVKPSETLSLTCTVSTTSLRSYFWSWIRQPPGKGLEWIGYVYYSGSTIYNPSLKNRVTISIDTSKNQFSLNLRSVTAADTAMYFCARGVPAETDARDFPPYYFDHWGQGTLVTVSS
VL: CDIQLTQSPSSLSASVGNRITFTCQASQDIRYYLNWYQQKPGKAPKLLIYDVSNLDTGVPPRFSGSGSGTNFTFTISSLQPEDIAVYYCQQYEGLPVTFGGGTKVEIK
notes: Recombinant complete human IgG1, kappa
EC50 ((PR)15: H-C(PR)15-OH [1]): 12.8 nM
EC50 ((PR)15: H-C(PR)15-OH [2]): 11.3 nM

B2: NI-308.45C2 (antibody, V domains shown)
VH: QLQLQESGPGLVKPSQILSLTCAISGDSVFSNSAAWNWIRQSPSRGLEWLGRTYYRSKWDNDYAPSVKSRISINPDTSKNQFSLQLNSVTPEDTAVYYCAREVAYCGGDCYSVSFDYWGQGTLVTVSS
VL: not shown
notes: as for B1
EC50 [3]: 1.1 nM

B3: NI-308.5G2 (antibody, V domains shown)
VH: EVQLVQSGADLRNPGASVTVSCTASGYHFADNAINWLRQAPGQRLEWMGWINIYSGNTKYSQNFQGRVTFTRNTSASTAFMHLRSLRSEDTAVYFCARDPDSSGYYLPYFDYWGQGTLVTVSS
VL: DIQLTQSPDSLTLSLGERATINCKSSQSVFYNSNNKNYLAWYQQKPGQPPKLLMYWASTRESGVTDRFSGSGSGTDFTLTITNLQAEDVAVYYCQQFYSSPLTFGGGTKVEIK
notes: as for B1
binding result (GP4: H-(GP)4HHHHHH-NH2): no binding (tested: about 4x10^5 pM (last point))
binding result (GP3: H-(GP)3HHHHHH-NH2): no binding (tested: about 4x10^5 pM (last point))

B4: NI-308.6B11 (antibody, V domains shown)
VH: EVQLVQSGAEVKRPGASVKVSCKVSGYTLTELSMHWVRQAPGKGLEWMGGFDPEDGETVYAQKFQGRVTMTEDTSTDTAYMELSSLRSEDTALYHCATYGSSWHWNEGNEGSYYFDYWGQGTLVTVSS
VL: CDIQMTQSPSSLSASVGDRVTITCQASQDISIYLNWYQQKPGKAPKLLIYDASNLETGVPSRFSGSGSGTDFTFTISGLQPEDVARYYCQQYDDLPITFGQGTRLEIK
notes: as for B1
EC50 ((GR)15: H-C(GR)15-OH): 0.94 nM
